The text below walks through data of patent US20130136748A1 (Ablynx, published 2013).

Experiment [1] deals with T1, human HER3-Fc (R&D Systems, 348-RB) (human, UniProt P21860 20-643).
T1 construct: Bought; also called hHER3-Fc; Fc-HER3; Fc part of the bought chimera not given, not described
Nature of the experiment: HRG blocking alphascreen.

Experiment [2] addresses T1, human HER3-Fc (R&D Systems, 348-RB). The experiment is described as follows: HRG competition alphascreen.
In experiment [3] the target is T2, hHER3 full length (human, UniProt P21860 20-1342). Nature of the experiment: cell-based or functional assay.
The target in experiment [4] is T2, hHER3 full length. The experiment is described as follows: FACS, 400 nM, competitor 17C08-biotin.
For experiment [5], the target named is T3, human HER4 (human, UniProt Q15303 26-1308). The experiment is described as follows: FACS CHO-HER4, 222 nM.
The target in experiment [6] is T1, human HER3-Fc (R&D Systems, 348-RB). The experiment is described as follows: SPR, HER3-Fc captured by anti-Fc.
In experiment [7] the target is T3, human HER4. Nature of the experiment: FACS CHO-HER4, 667 nM.
In experiment [8] the target is T4, human HER1 (human, UniProt P00533 25-1210).
T4 construct: also called EGFR; ErbB1
The experiment is described as follows: FACS, CHO-HER1.

Experiment [9] has as its target T2, hHER3 full length. The experiment is described as follows: cell-based or functional assay. This is another data set of the same source.
Experiment [10] has as its target T2, hHER3 full length. Nature of the experiment: cell-based or functional assay. This is another data set of the same source.
In experiment [11] the target is T5, human HER2 (human, UniProt P04626 23-1255).
T5 construct: also called hHER2
Nature of the experiment: FACS CHO-HER2, 222 nM.

The target of experiment [12] is T2, hHER3 full length. Nature of the experiment: FACS, 400 nM, competitor 04F10-biotin.
The target in experiment [13] is T5, human HER2. The experiment is described as follows: FACS, CHO-HER2.
Experiment [14] concerns the target T6, cHER3ECD (Maccaca fascicularis HER3 extracellular domain) (Macaca fascicularis, UniProt P21860 20-643 (human entry)).
T6 construct: also called cyno HER3ECD; cyno HER3-ECD
T6 chain: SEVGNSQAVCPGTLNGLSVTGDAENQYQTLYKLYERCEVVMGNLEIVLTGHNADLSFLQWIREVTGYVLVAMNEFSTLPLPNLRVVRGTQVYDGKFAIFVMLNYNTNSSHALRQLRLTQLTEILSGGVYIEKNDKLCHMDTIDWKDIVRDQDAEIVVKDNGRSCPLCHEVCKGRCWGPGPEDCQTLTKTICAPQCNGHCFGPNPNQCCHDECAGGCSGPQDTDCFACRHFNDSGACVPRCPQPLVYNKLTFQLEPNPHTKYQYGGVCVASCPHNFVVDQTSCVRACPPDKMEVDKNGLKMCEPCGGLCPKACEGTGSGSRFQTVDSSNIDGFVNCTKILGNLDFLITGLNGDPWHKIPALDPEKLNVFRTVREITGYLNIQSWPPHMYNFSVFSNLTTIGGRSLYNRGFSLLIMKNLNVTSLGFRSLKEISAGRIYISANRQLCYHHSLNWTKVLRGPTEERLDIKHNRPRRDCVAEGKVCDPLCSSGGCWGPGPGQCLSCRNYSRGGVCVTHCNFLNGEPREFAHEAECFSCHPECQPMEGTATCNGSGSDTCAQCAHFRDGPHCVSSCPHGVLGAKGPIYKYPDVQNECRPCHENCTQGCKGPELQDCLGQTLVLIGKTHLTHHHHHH
The experiment is described as follows: ELISA, coated cHER3-ECD.

For experiment [15], the target named is T5, human HER2. The experiment is described as follows: FACS CHO-HER2, 667 nM.
Experiment [16] has as its target T4, human HER1. The experiment is described as follows: FACS CHO-HER1, 2000 nM.
Experiment [17] concerns the target T1, human HER3-Fc (R&D Systems, 348-RB). Nature of the experiment: HRG competition alphascreen. This is another data set of the same source.
Experiment [18] has as its target T7, hHER3 ECD (human HER3 extracellular domain) (human, UniProt P21860 20-643).
T7 construct: also called recombinant HER3-ECD
The experiment is described as follows: ELISA, coated hHER3-ECD.

The target in experiment [19] is T1, human HER3-Fc (R&D Systems, 348-RB). Nature of the experiment: HRG competition alphascreen. The source holds these as a separate data set.
In experiment [20] the target is T2, hHER3 full length. Nature of the experiment: FACS, 400 nM, competitor 23F05-biotin.
Experiment [21] addresses T5, human HER2. Nature of the experiment: FACS CHO-HER2, 2000 nM.
The target in experiment [22] is T3, human HER4. Nature of the experiment: FACS CHO-HER4, 2000 nM.
The target in experiment [23] is T3, human HER4. The experiment is described as follows: FACS, CHO-HER4.
Experiment [24] deals with T4, human HER1. The experiment is described as follows: FACS CHO-HER1, 222 nM.
In experiment [25] the target is T2, hHER3 full length. Nature of the experiment: FACS competition with HRG1-β1-EGF, CHO-HER3.
The target of experiment [26] is T4, human HER1. Nature of the experiment: FACS CHO-HER1, 667 nM.
Experiment [27] addresses T2, hHER3 full length. The experiment is described as follows: FACS, 400 nM, competitor 04C07-biotin.
Experiment [28] deals with T2, hHER3 full length. The experiment is described as follows: FACS, 400 nM, competitor 21B02-biotin.
Experiment [29] deals with T8, Chicken Her3 (AA1-25 human, AA26-642 chicken) (chicken (human signal sequence)).
T8 construct: Transmembrane and extracellular regions only, on transiently transfected HEK293 cells; also called full length extracellular chicken HER3
T8 chain: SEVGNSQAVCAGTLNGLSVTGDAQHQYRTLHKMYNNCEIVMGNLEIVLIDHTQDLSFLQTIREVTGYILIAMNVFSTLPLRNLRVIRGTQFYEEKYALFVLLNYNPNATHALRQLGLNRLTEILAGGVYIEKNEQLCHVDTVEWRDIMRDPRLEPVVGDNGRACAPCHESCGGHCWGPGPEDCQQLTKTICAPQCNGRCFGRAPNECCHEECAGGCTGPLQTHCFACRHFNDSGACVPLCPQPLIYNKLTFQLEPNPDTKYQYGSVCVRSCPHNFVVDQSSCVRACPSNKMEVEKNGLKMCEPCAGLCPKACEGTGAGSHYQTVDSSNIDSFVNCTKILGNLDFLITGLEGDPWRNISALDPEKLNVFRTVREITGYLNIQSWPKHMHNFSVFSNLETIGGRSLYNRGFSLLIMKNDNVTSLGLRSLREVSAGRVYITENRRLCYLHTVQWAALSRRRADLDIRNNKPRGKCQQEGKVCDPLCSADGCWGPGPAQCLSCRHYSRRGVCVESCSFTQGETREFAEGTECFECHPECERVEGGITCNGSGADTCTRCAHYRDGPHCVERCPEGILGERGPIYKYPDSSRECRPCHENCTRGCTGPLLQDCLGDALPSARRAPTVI
Nature of the experiment: FACS, HEK293 with chicken HER3.

Experiment [30] has as its target T1, human HER3-Fc (R&D Systems, 348-RB). The experiment is described as follows: alphascreen, competitor biotinylated 18G11.
The target is the same in experiment [31]. The experiment is described as follows: 18G11 competition alphascreen.
Experiment [32] addresses T2, hHER3 full length. The experiment is described as follows: cell-based or functional assay. This is another data set of the same source.
In experiment [33] the target is T7, hHER3 ECD (human HER3 extracellular …). Nature of the experiment: SPR off rate.

“And” between values parts separate entries of the source, which are not always exact repeats. Equal entries are not always repeated.

T3 sequence (Q15303 26-1308 limits assumed): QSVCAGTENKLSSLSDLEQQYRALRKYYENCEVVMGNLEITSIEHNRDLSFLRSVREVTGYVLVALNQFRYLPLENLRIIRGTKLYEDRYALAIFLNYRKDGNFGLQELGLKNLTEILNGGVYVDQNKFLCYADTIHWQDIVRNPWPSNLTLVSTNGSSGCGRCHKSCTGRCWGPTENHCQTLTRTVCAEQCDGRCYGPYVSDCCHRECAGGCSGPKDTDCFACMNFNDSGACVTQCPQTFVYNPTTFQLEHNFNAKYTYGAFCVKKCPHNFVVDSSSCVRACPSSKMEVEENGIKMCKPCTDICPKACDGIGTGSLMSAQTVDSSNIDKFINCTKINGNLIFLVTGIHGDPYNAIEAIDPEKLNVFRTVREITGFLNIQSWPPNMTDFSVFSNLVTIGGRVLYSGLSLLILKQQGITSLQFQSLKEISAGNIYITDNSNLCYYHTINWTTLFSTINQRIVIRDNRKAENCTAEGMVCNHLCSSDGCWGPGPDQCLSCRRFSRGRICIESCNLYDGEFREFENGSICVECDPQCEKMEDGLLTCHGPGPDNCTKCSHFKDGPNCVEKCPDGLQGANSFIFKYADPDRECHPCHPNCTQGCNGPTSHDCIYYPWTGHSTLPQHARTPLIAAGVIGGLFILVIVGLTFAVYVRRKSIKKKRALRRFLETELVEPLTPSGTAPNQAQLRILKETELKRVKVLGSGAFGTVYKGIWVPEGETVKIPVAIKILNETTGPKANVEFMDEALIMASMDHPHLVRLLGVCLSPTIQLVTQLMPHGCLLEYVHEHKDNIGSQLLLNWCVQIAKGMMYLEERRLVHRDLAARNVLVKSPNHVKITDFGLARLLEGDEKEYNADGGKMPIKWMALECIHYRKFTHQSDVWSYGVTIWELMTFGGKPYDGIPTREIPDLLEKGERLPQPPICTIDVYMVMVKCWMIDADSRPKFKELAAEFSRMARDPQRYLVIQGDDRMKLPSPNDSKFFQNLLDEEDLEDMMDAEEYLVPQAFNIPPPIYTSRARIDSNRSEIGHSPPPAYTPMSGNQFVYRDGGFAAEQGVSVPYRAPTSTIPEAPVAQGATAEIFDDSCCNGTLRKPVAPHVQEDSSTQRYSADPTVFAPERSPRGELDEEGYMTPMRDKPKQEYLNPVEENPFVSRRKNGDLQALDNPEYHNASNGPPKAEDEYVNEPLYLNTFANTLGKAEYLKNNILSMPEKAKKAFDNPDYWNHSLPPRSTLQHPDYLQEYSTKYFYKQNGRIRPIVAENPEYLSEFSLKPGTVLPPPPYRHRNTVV

B1: HER3MS00045 (VHH)
VHH: EVQLVESGGGLVQPGGSLRLSCAASGFTFSSYPMSWVRQAPGKGPEWVSTVSPGGITTSYADSVKGRFTISRDNSKNTLYLQMNSLRPEDTAVYYCARDLNNRGQGTLVTVSS
notes: 04C07 basic + A46E + L93A; also called HER3MS0045
Regarding B1, in [1], the “fold lower potency than parental 04C07” value amounted to 18 fold. Further, the IC50 in experiment [2] worked out at 4.91 nM.

B2: 21F06 (VHH)
VHH: EVQLVESGGGLVQAGGSLRLSCAASGRTYYLNAMGWFRQGPGKDREFVAAIDWSDGNKDYADSVKGRFTISRDNAKNTVYLQMNSLKPEDTAVYYCAADTPPWGPMIYIESYDSWGQGTQVTVSS
notes: c-myc, His6-tagged form as expressed; also called 21F6; HER3MS21F06
Consider B2, for which the “IC50, HRG1-β1 induced pAkt, MCF-7” value with hHER3 full length [3] is 2.31e-08 M. Moreover, the “IC50, HRG1-β1 induced pERK1/2, MCF-7” value with hHER3 full length [3] was 1.11e-07 M. For the same molecule, the “% competition” value with hHER3 full length [4] was 9%; with hHER3 full length [12] it was 15%; with hHER3 full length [20], 100%; with hHER3 full length [27], 11%; in the experiment with hHER3 full length [28], 100%. Moreover, the MCF was determined as 149 with human HER4 [5]; 225 with human HER4 [7]; 84 with human HER2 [11]; 229 in the experiment with human HER2 [15]; 74 with human HER1 [16]; 409 in the experiment with human HER2 [21]. Moreover, the MCF was determined as 263 with human HER4 [22], 107 with human HER1 [24] and 110 with human HER1 [26]. The same molecule displayed a Kd in experiment [6] of 0.12 nM. In experiment [6], the kon was 1.8e+07 M⁻¹ s⁻¹. In addition, the binding result is on record as “no binding (tested: 2000 nM)” in the experiment with human HER1 [8], “no binding (tested: 2000 nM)” with human HER2 [13], “no binding (tested: 2000 nM)” in the experiment with human HER4 [23] and “binds” in experiment [29]. In the experiment with hHER3 full length [9], the “IC50 pHER3, HRG1-β1 stimulated MCF7” value came out at 8.74e-09 M. For the same molecule, the “IC50, HRG1-β1 induced pHER3, MCF-7” value with hHER3 full length [10] was 6.79e-09 M. Further, the “IC50, HRG1-β1 induced pHER3, MDA-MB468” value with hHER3 full length [10] was determined as 7.94e-09 M. Also, the figures for the EC50 in experiment [14] and in [18] were 0.32 nM and 0.3 nM, respectively. The figures for the IC50 (in [17]; in experiment [19]; with hHER3 full length [25]) were 0.25 nM, 0.0135 nM and 10.1 nM, respectively. Besides, the “% inhibition” value in experiment [19] was found to be 104%.

B3: HER3MS0050 (VHH)
VHH: EVQLVESGGGLVQPGGSLRLSCAASGTLFKINAMGWYRQAPGKRRELVALITSSDTTDYAESVEGRFTISRDNTWNAVYLQMNSLRPEDTAVYYCHSDHYSMGVPEKRVIMYGQGTLVTVSS
notes: Kabat numbering; also called 18G11 basic variant
The molecule B3 returned an IC50 in experiment [30] of 3.2 nM.

B4: HER3MS00211 (VHH)
VHH: EVQLVESGGGLVQPGGSLRLSCAASGTLFKINAMGWYRQAPGKRRELVALITSSDTTDYADSVKGRFTISRDNSWNTVYLQMNSLRPEDTAVYYCHSDHYSLGVPEKRVILYGQGTLVTVSS
notes: 18G11 second round variant without R44Q (selected)
B4 gave an IC50 in experiment [31] of 5.4 nM. Moreover, the “IC50 pHER3 blocking, HRG stimulated MCF7” value in the experiment with hHER3 full length [32] was 1.79e-08 M and 2e-08 M. Besides, the koff in [33] was determined as 0.00072 s⁻¹.
